According to article PMC6237427:

How the values were obtained:
[1] = biological target: germline-reverted VRC01; assay: BLI; Octet Red, 29°C, shaking 500 r.p.m.; germline-reverted VRC01 IgG immobilised on anti-AHC biosensors (40 μg/ml in PBS); Env gp140 trimers in 2-fold dilution series (4 μM to >250 nM) in kinetic buffer (1X PBS pH7.4, 0.1% BSA, 0.02% Tween 20, 0.05% NaN3); 300 s association, 600 s dissociation; 1:1 binding model; relative apparent affinities
[2] = biological target: HIV-1 426c.TM4 (S278R.G471S.N460D.N463D) Env on Env-pseudotyped virus produced in 293T cells (HIV-1)
[3] = biological target: HIV-1 426c.TM4 (S278R.G471S.N460D.N463D) Env on Env-pseudotyped virus produced in 293S GnT1- cells (HIV-1)
[4] = biological target: HIV-1 426c.DM (N460D.N463D) Env on Env-pseudotyped virus produced in 293S GnT1- cells (HIV-1)
[5] = biological target: HIV-1 426c.TM1 (N276D.N460D.N463D) Env on Env-pseudotyped virus produced in 293S GnT1- cells (HIV-1)
[6] = biological target: HIV-1 426c Env on Env-pseudotyped virus produced in 293S GnT1- cells (HIV-1)
[7] = biological target: HIV-1 426c.SM (N276D) Env on Env-pseudotyped virus produced in 293S GnT1- cells (HIV-1)
[8] = biological target: HIV-1 426c.SM (N276D) Env on Env-pseudotyped virus produced in 293T cells (HIV-1)
[9] = biological target: HIV-1 426c Env on Env-pseudotyped virus produced in 293T cells (HIV-1)
[10] = biological target: HIV-1 426c.DM (N460D.N463D) Env on Env-pseudotyped virus produced in 293T cells (HIV-1)
[11] = biological target: HIV-1 426c.TM1 (N276D.N460D.N463D) Env on Env-pseudotyped virus produced in 293T cells (HIV-1)
[12] = biological target: HIV-1 TRO.11 Env on Env-pseudotyped virus produced in 293S GnT1- cells (HIV-1)
[13] = biological target: HIV-1 TRO.11 Env on Env-pseudotyped virus produced in 293T cells (HIV-1)

Substance	Kd [1]	koff [1]	kon [1]	IC50 of neutralization of the Env-pseudotyped virus in TZM-bl cells [2]	IC50 of neutralization of the Env-pseudotyped virus in TZM-bl cells [3]	IC50 of neutralization of the Env-pseudotyped virus in TZM-bl cells [4]	IC50 of neutralization of the Env-pseudotyped virus in TZM-bl cells [5]	IC50 of neutralization of the Env-pseudotyped virus in TZM-bl cells [6]	IC50 of neutralization of the Env-pseudotyped virus in TZM-bl cells [7]	IC50 of neutralization of the Env-pseudotyped virus in TZM-bl cells [8]	IC50 of neutralization of the Env-pseudotyped virus in TZM-bl cells [9]	IC50 of neutralization of the Env-pseudotyped virus in TZM-bl cells [10]	IC50 of neutralization of the Env-pseudotyped virus in TZM-bl cells [11]	IC50 of neutralization of the Env-pseudotyped virus in TZM-bl cells [12]	IC50 of neutralization of the Env-pseudotyped virus in TZM-bl cells [13]
426c N276D gp140 (293T), uncleaved soluble trimer (domain or fragment)	0.0588 µM	0.000193 s⁻¹	9010 M⁻¹ s⁻¹												
426c N276D gp140 (GnT1-), uncleaved soluble trimer (domain or fragment)	0.178 µM	0.000739 s⁻¹	11100 M⁻¹ s⁻¹												
TM1 gp140 (293T), uncleaved soluble 426c trimer (domain or fragment)	0.0294 µM	0.000148 s⁻¹	5030 M⁻¹ s⁻¹												
TM1 gp140 (GnT1-), uncleaved soluble 426c trimer (domain or fragment)	0.0426 µM	0.000229 s⁻¹	5370 M⁻¹ s⁻¹												
germline-reverted 3BNC117 (antibody)				> 25 mg/L	> 25 mg/L	> 25 mg/L	> 25 mg/L	> 25 mg/L	> 25 mg/L						
germline-reverted 12A12 (antibody)				> 25 mg/L	0.63 mg/L	> 25 mg/L	> 25 mg/L	> 25 mg/L	> 25 mg/L						
germline-reverted VRC01 (antibody)				> 25 mg/L	0.36 mg/L	> 50 mg/L	1.37 mg/L	> 50 mg/L	0.99 mg/L	> 50 mg/L	> 50 mg/L	> 50 mg/L	> 50 mg/L	> 50 mg/L	> 50 mg/L
germline-reverted VRC03 (antibody)				> 25 mg/L	> 25 mg/L	> 25 mg/L	> 25 mg/L	> 25 mg/L	> 25 mg/L						
germline-reverted VRC04 (antibody)				> 25 mg/L	> 25 mg/L	> 25 mg/L	> 25 mg/L	> 25 mg/L	> 25 mg/L						
germline-reverted VRC07 (antibody)				> 25 mg/L	1.7 mg/L	> 25 mg/L	1.6 mg/L	> 25 mg/L	0.76 mg/L						
germline-reverted VRC18b (antibody)				> 25 mg/L	17.3 mg/L	> 25 mg/L	23 mg/L	> 25 mg/L	> 25 mg/L						
germline-reverted VRC20 (antibody)				2.39 mg/L	0.03 mg/L	> 25 mg/L	4.6 mg/L	> 25 mg/L	10.3 mg/L						
germline-reverted VRC23 (antibody)				> 25 mg/L	> 25 mg/L	> 25 mg/L	> 25 mg/L	> 25 mg/L	> 25 mg/L						
